Results on two compounds are retold here after US9446226B2, “Drug-delivering composite structures” (Ramot at Tel-Aviv University Ltd., priority 2005, dated 2016).

Series [1] in a line: In vitro paclitaxel release from composite fibrous structures. The note with it: PBS 37° C. In kind it is physicochemical. The procedure: Cumulative release of paclitaxel from samples of composite fibrous structures was monitored and followed over a time period of four months. Samples of composite structures were immersed in PBS at 37° C. for 112 days. The medium was entirely removed periodically and assayed for drug release, and fresh medium was introduced. The paclitaxel content of each medium sample was determined using Agilent 1100 High Performance Liquid Chromatography (HPLC).

The conditions of series [2]: as obtained from Aldrich; cited from earlier work.
A short description of series [3]: In-vitro HRP release from composite fibrous structures. In kind it is physicochemical. The procedure:
Various samples of HRP-containing composite fibrous structures were used to determine the release kinetics of HRP over a time period of 90 days. The HRP release studies were conducted in closed 1 ml glass vessels in which the HRP-containing composite fibrous structures were immersed in 1 ml sterile double-distilled water containing sodium azide as preservative (0.05% w/w) at 37° C. The entire aqueous medium was replaced periodically by fresh medium and HRP content in the removed medium was determined by the micro BCA assay method, by measuring absorbance at 595 nm.
Cumulative HRP release profiles were determined relative to the initial amount of HRP in each of the tested structures, i.e., the amount of HRP released during the incubation period and the residual HPR remaining in the structures. All experiments were performed in triplicate.
Residual protein recovery front composite fibrous structures: Residual protein recovery from spent composite fibrous structure samples used in the abovementioned in-vitro release experiments was conducted according to a previously described method [Jeffery H et al., Pharm. Res., 1993, 10(3), pp 362-368].
Briefly, composite fibrous structures were extracted in 1 ml sodium dodecyl sulfate (SDS)/NaOH 5%/0.1 M solution for 48 hours at 37° C. Following extraction, the HRP concentration was estimated using a micro BCA assay method as described hereinabove. Based on these assays, the exact amount of the HRP loaded in each structure was determined and served for calculating the percentages cited in the assays above.

In the case of `CC(=O)O[C@H]1C(=O)[C@@]2(C)[C@H]([C@H](OC(=O)c3ccccc3)[C@]3(O)C[C@H](OC(=O)[C@H](O)[C@@H](NC(=O)c4ccccc4)c4ccccc4)C(C)=C1C3(C)C)[C@]1(OC(C)=O)CO[C@@H]1C[C@@H]2O` [paclitaxel, Paclitaxel], the results for the “paclitaxel released during the first 24 hours” value in series [1] (emulsions containing 2.9% w/w paclitaxel) and in series [1] (fibers coated with emulsion containing 7.14% w/w paclitaxel) were 3% and 7%, respectively. The “burst effect of paclitaxel release during the first days” value in series [1] (standard reference emulsion (17.5% w/v polymer, 1.43% w/w paclitaxel, O:A 2:1), nylon core) is reported as “less than 3%”.

For the compound Horseradish peroxidase [HRP], the initial enzymatic activity in series [2] is on record as 500 U/mg. The “initial burst of HRP release” value in series [3] (1% w/w HRP load, O:A 4:1, water with sodium azide, 37° C.) was 20%. In addition, the “initial burst of HRP release (mean)” value in series [3] (5% w/w HRP load, O:A 4:1, water with sodium azide, 37° C.) worked out at 70%. The “active enzyme released during the 90 day experiment” value in series [3] (5% w/w HRP load, O:A 4:1, 8:1, 16:1, coat-polymer 13%, 15%, 19% w/v, 90 days) was “at least 90%”. For the same compound, the “burst effect of HRP release” value in series [3] (O:A 4:1 formulations, 5% w/w HRP load) is listed as 70-80%; in series [3] (O:A 8:1, 5% w/w HRP, highest coat-polymer content (19% w/v)), 26%; in series [3] (O:A 8:1, 5% w/w HRP, lowest coat-polymer content (13% w/v)), 66%; in series [3] (O:A 16:1, 5% w/w HRP, highest coat-polymer content (19% w/v)) it was 10%; in series [3] (O:A 16:1, 5% w/w HRP, lowest coat-polymer content (13% w/v)), 20%; in series [3] (O:A 16:1 formulations, 5% w/w HRP load) it was 10-20%.
